Key:
SmBiT-Snof10 = experiment: split reporter
Snof3-LgBiT = experiment: split reporter
[1] = biological target: Snof10, yeast surface-displayed; experiment: flow cytometry on cells
[2] = biological target: Snof3, yeast surface-displayed; experiment: flow cytometry on cells

Kd (SmBiT-Snof10): 20 nM
Kd (Snof3-LgBiT): 20 nM
Kd [1]: 28 nM
Kd [2]: 11 nM
B1: Sso6904 (natural protein)
chain: MMAMSILEDPEFVKLRQFKGKVNFNLVMQILDEIELDLRGSDNIKTSIIYVYSSHLDEIRKNKEFYDMIAEILQRYYKKIGIENVNQLILTTIK

From paper PMC9301641
